Like-named read-outs stand apart in the source and are kept apart here.
How the values were obtained:
human thrombi = test: MRI of in vitro formed human plasma thrombi stained with Gadolinium loaded antibody-dendrimer constructs; format: cell-based
Experimental: Antibody-Dendrimer constructs (1.5 nmol) were loaded with Gadolinium by adding 64 nmol GdCl3.6H2O in PBS (0.1M, pH 7.4) overnight at room temperature under shaking. Excess Gadolinium was removed by dialysis (10,000 Dalton dialysis membrane, 12 h against 500 mL PBS with 3 buffer changes every 4 h).
To form human thrombi in vitro 1 mL platelet rich plasma (citrated blood spun down at 1000 rpm for 10 min) was mixed with 100 μL ADP, 88 μL Actin, 25 μL 1 M CaCl2 in a 1.5 mL reaction tube. Samples were incubated for 12 min at 37° C. in a water bath, incubated with antibody-dendrimer fusion product for another 30 min at 37° C. under continuous rotation. Thrombi were washed 3 times with 2 mL PBS for 10 min and fixed in formalin solution (1%) before imaging.
MRI of thrombi was performed on a 4.7 Tesla animal MRI scanner (Biospin Bruker). T1 weighted images with TE/TR 15 ms/350 ms were taken with a resolution of 512×512 μm (FOV 7 cm, average 4). 10 slices of 1 mm thickness were taken.

[1] = cited from earlier work

Substance	stability of the conjugate ([1]; acidic conditions (pH 4-6))	stability of the conjugate ([1]; pH 4)	stability of the conjugate ([1]; pH 5)	further results
MAL-(CH2)2CONH-PEG1100-CO-NEOEOEN[Su(NPN)2][Lys]8[Su-p-Bn-DTPA]16 [Example 7v]	–	–	–	MRI signal, control experiment (human thrombi; non reduced C-terminal cysteine antibody incubated with dendrimer): did not show any MRI signal; MRI signal, control experiment (human thrombi; non-modified antibody (no Traut's reagent) incubated with dendrimer): did not show any MRI signal
[TFA.NH2(CH2)5NHSu]NEOEOEN[Su(NPN)2]Lys8[Su-p-Bn-DTPA]16 [Example 9iv]	–	–	–	MRI signal, control experiment (human thrombi; antibody incubated with dendrimer but without the Transglutaminase coupling enzyme): did not show any MRI signal
α-methoxy-ω-{N-2-(3-hydroxypropyl-cholesterylcarbarnate)-2-methyl-[1,3]dioxan-5-yl-amido}-polyethyleneglycol110	not stable	–	–	–
α-methoxy-ω-{N-(2-cholesteryloxy-[1,3]dioxolan-4-yl)methylamido}-polyethyleneglycol110	–	moderately less stable	very stable	–
α-methoxy-ω-{N-(2-methyl-s-octadecyloxy-[1,3]dioxan-5-yl)-amido}-polyethyleneglycol110	not stable	–	–	–
α-methoxy-ω-{N-(2-octadecyloxy-[1,3]dioxolan-4-yl)methylamido}-polyethyleneglycol110	–	good stability	good stability	–
